Series [1] is described as follows: Side by side biodistribution of ^203Pb- and ^212Pb-DOTAMTATE in CD-1 mice (FIG. 32). It counts as in vivo. The settings on record: female CD-1 mice, 10 μCi iv, 4 hr and 24 hours. As to the method: Female CD-1 mice (˜20 g) are injected with a single dose of ^203Pb-DOTAMTATE or ^212Pb-DOTAMTATE. Specifically, 10 μCi of ^203Pb-DOTAMTATE or ^212Pb-DOTAMTATE is diluted in saline and 100 μl is administered to the mice via intravenous injection. The animals are sacrificed at predetermined time points of 4 hr and 24 hours post drug injection. Tissues are collected from each animal and evaluated for amount of radioactive material in each organ by auto gamma counter. Specifically, organs are harvested, weighed and transferred to 12×55 mm polypropylene tubes. The tubes are placed in a calibrated Wizard2 γ-counter (PerkinElmer, Shelton, Conn.) and counted for three minutes (204-274 keV). A standard consisting of one-twentieth of the injection volume is counted with each time point. The background is automatically subtracted from the counts. The standard is also used for decay correction. % ID/g is calculated for each organ collected, wherein “% ID” means percent injection dosage.

The nature of series [2]: Biodistribution in non-tumor bearing CD-1 mice at 4 h post-injection (FIGS. 12-13). Conditions: female, CD-1, mouse, in vivo, total radioactivity. As to the method:
FIG. 12 is a bar graph 1200 showing the biodistribution (% ID/g)(y-axis) for various organs (x-axis). The biodistribution of ^203Pb-TCMCTATE and ^203Pb-DOTAMTATE is shown for non-tumor bearing mice done at 4 h post-injection. The biodistribution studies of ^203Pb-TCMCTATE and ^203Pb-DOTAMTATE are completed in non-tumor bearing mice (CD-1 mice, Female, 20 g wt. 4-5 weeks) at 4 h post-injection of the cancer targeting compositions.
In comparison, FIG. 13 is a graph 1300 (similar to the graph of FIG. 12), except that the biodistribution study is of ^203Pb-acetate (a lead radioisotope without a chelator or targeting moiety) in non-tumor bearing mice done at 4 h post-injection. A higher accumulation of isotope is observed in blood, kidney, liver and lung compared to the chelated radioisotopes of FIG. 12. The biodistribution studies of the ^203Pb-acetate indicate retention of the isotope in bone marrow, blood and liver after 4 h post-injection.

Series [3] can be described thus: Radiochemical stability by radio-HPLC after labeling, incubation in PBS buffer. Conditions: room temperature.
The nature of series [4]: Dosimetry and bio-distribution of ^203Pb-DOTAMTATE in patients with somatostatin expressing neuroendocrine tumors (SPECT-CT). Format: in vivo, human. Conditions: human, in vivo. Here is the method: Total of 6 patients are enrolled in the first-in-human open-label, single-dose, dosimetry and bio-distribution of ^203Pb-DOTAMTATE.
All patients (1 female and 5 male) receive an average dose of 4.94 (4.66-5.26) mCi of ^203Pb-DOTAM-TATE and undergo 1 hour, 4 hour, 24 hour and 48 hour post injection SPECT-CT scans. Ethnicity of all 6 patients is Caucasian.
Pharmacokinetic data from ^203Pb-DOTAMTATE imaging are used to calculate the absorbed dose from ^203Pb-DOTAMTATE imaging. The data is then extrapolated to calculate the expected tissue absorbed doses following the administration of ^212Pb-DOTAMTATE for future Targeted Alpha particle Therapy (TAT).

Series [5] is described as follows: ^203Pb-DOTAMTATE biodistribution in athymic nude mice (FIG. 16). It counts as in vivo. Conditions: female athymic nude mice, 10 μCi iv, 4, 24 and 48 hours. Here is the method:
FIG. 16 is a bar graph 1600 showing the biodistribution results (% ID/g) of ^203Pb-DOTAMTATE in various organs (y-axis). The biodistribution data are acquired at 4 h, 24 h, and 48 h post-injection. […] There is also accumulation of the composition observed in kidneys and bladder due elimination of the composition through renal clearance. As may be seen from these figures, the composition is washed out from all measured organs over time in non-tumor bearing mice.
Female athymic nude mice (˜20 g) are injected with a single dose of ^203Pb-DOTAMTATE. Specifically, 10 μCi of ^203Pb-DOTAMTATE is diluted in PBS and 100 μl is administered to the mice via intravenous injection. The animals are sacrificed at predetermined time points of 4 hr, 24 hours and 48 hours post drug injection. Tissues are collected from each animal and evaluated for amount of radioactive material in each organ by auto gamma counter. Specifically, organs are harvested, weighed and transferred to polypropylene tubes. The tubes are placed in a calibrated Wizard2 γ-counter (PerkinElmer, Shelton, Conn.) and counted for three minutes (204-274 keV). A standard consisting of one-twentieth of the injection volume is counted with each time point. The background is automatically subtracted from the counts. The standard is also used for decay correction. % ID/g is calculated for each organ collected.

The next series in a line: in vivo. Set-up: species or system mice. As to the method: ^212Pb-DOTATOC is prepared based on activity needed at time of injection. 4.1 ng of peptide per 10 μCi of ^212Pb into a tube is added. The mixture is incubated for 10 minutes at 50° C. with shaking. ITLC (Instant thin layer chromatography) is used to verify that chelation is >95%. 100 μl of ^212Pb-DOTATOC is intravenously injected into the tail of each mouse. An auto gamma counter is used to determine the counts of each organ and control tube.

The mark [6] stands for this setting: female, CD-1, mouse, iv, 10 uCi, total radioactivity.

Where only a bound is given, the exact number is not on record here.

Turning to `C[C@@H](O)[C@H](NC(=O)[C@@H]1CSSC[C@H](NC(=O)[C@@H](Cc2ccccc2)NC(=O)CN2CCN(CC(N)=O)CCN(CC(N)=O)CCN(CC(N)=O)CC2)C(=O)N[C@@H](Cc2ccc(O)cc2)C(=O)N[C@H](Cc2c[nH]c3ccccc23)C(=O)N[C@@H](CCCCN)C(=O)N[C@@H]([C@@H](C)O)C(=O)N1)C(=O)O` [^203Pb-DOTAMTATE, ((4R,7S,10S,13R,16S,19R)-13-((1H-indol-3-yl)methyl)-10-(4-aminobutyl)-16-(4-hydroxybenzyl)-7-((R)-1-hydroxyethyl)-6,9,12,15,18-pentaoxo-19-((R)-3-phenyl-2-(2-(4,7,10-tris(2-amino-2-oxoethyl)-1,4,7,10-tetraazacyclododecan-1-yl)acetamido)propanamido)-1,2-dithia-5,8,11,14,17-pentaazacycloicosane-4-carbonyl)-L-threonine chelated to M, metal not drawn], the “organ uptake compared with ^212Pb-DOTAMTATE in all critical organs” value in series [1] was “not significantly different”. Besides, the tissue uptake at 4 h in series [2] (kidney retention) was found to be 9.79 ± 2.9 %ID/g. Moreover, the tissue uptake at 4 h in series [2] (retention in other organs (than kidneys)) was below 2 %ID/g. In series [3] (up to at least 24 h post-labeling), the “radiochemical stability (radiochemical yield, no free ^203Pb peak in radio-HPLC)” value was at least 98%. Further, in series [4], the “absorbed dose, kidneys, average, for ^212Pb” value worked out at 19 mGy/MBq; the “absorbed dose, liver, average, for ^212Pb” value worked out at 17 mGy/MBq; the “dose to bone marrow” value was 1.6 Gy; the “dose to heart wall” value came out at 3.7 Gy. Further, in series [4], the dose to lungs came out at 2.5 Gy, the “dose to osteogenic cells” value came to 0.5 Gy and the dose to spleen worked out at 31 Gy. Also, the organ uptake entry in series [5] was “high initial uptake of the drug in the pancreas and kidneys that continues to decrease over time”.
Consider `C[C@@H](O)[C@H](NC(=O)[C@@H]1CSSC[C@H](NC(=O)[C@@H](Cc2ccccc2)NC(=S)Nc2ccc(C[C@H]3CN(CC(N)=O)CCN(CC(N)=O)CCN(CC(N)=O)CCN3CC(N)=O)cc2)C(=O)N[C@@H](Cc2ccc(O)cc2)C(=O)N[C@H](Cc2c[nH]c3ccccc23)C(=O)N[C@@H](CCCCN)C(=O)N[C@@H]([C@@H](C)O)C(=O)N1)C(=O)O` [^203Pb-TCMCTATE, ((4R,7S,10S,13R,16S,19R)-13-((1H-indol-3-yl)methyl)-10-(4-aminobutyl)-16-(4-hydroxybenzyl)-7-((R)-1-hydroxyethyl)-6,9,12,15,18-pentaoxo-19-((R)-3-phenyl-2-(3-(4-(((S)-1,4,7,10-tetrakis(2-amino-2-oxoethyl)-1,4,7,10-tetraazacyclododecan-2-yl)methyl)phenyl)thioureido)propanamido)-1,2-dithia-5,8,11,14,17-pentaazacycloicosane-4-carbonyl)-L-threonine chelated to M, metal not drawn], for which the tissue uptake at 4 h in series [2] (non-tumor bearing CD-1 mice, 4 h post-injection, read-out: kidney retention) was 23.5 ± 1.54 %ID/g; in series [2] (non-tumor bearing CD-1 mice, 4 h post-injection, read-out: retention in other organs (than kidneys)), below 2 %ID/g. For the same compound, the “radiochemical stability (radio-HPLC)” value in series [3] (up to 18 h post-labeling) was at least 96%.
As to `C[C@@H](O)[C@@H]1NC(=O)[C@H](CCCCN)NC(=O)[C@@H](Cc2c[nH]c3ccccc23)NC(=O)[C@H](Cc2ccc(O)cc2)NC(=O)[C@@H](NC(=O)[C@@H](Cc2ccccc2)NC(=O)CN2CCN(CC(=O)O)CCN(CC(=O)O)CCN(CC(=O)O)CC2)CSSC[C@@H](C(=O)N[C@H](CO)[C@@H](C)O)NC1=O` [^212Pb-DOTATOC, metal not drawn], in the series “in vivo” (setting [6]), the tissue uptake at 0.5 h came to 19 %ID/g and the tissue uptake at 4 h was 22 %ID/g. In addition, the “drug in all other organs” value in the series “in vivo” (mouse) is listed as “nearly undetectable”.

For the origin of these results see patent publication US11541133B2, “Treatment of cancer cells overexpressing somatostatin receptors using ocreotide derivatives chelated to radioisotopes” (RADIOMEDIX INC., priority 2017, dated 2023).
